Laboratory results published in article PMC9616769.
Ends that are not written are not given here. * marks the point of attachment. pNA = O=[N+]([O-])c1ccc(N*)cc1

Target: NT-mini (catalytically competent fragment of human neurotrypsin, Gly497-Leu875) (human)

| Binder | Km of cleavage of the pNa peptide by NT-mini (Michaelis-Menten; 1 µM enzyme, 37 °C, 5 mM CaCl2, GF buffer pH 8) |
| --- | --- |
| KGLVEK-pNA (also: termed β-peptide, meaning not given here) [β-peptide (6-mer, KGLVEK) with a C-terminal p-nitroaniline] | 6.16 mM |
| GLVEK-pNA (also: termed β-peptide, meaning not given here) [β-(5 mer) peptide with a C-terminal p-nitroaniline] | 17.2 mM |
